enzymatic_activity and expression_or_secretion data for two proteins are collected here from paper PMC11513070.

The nature of data set [1]: cell-based cleavage assay, western blot. As to conditions: glycan lost.
Data set [2] in a line: western blot of total lysates, HEK293T. As to conditions: glycan lost; control: wild type SPPL2c-myc.
A short description of data set [3]: immunofluorescence of HO-1 ICD nuclear translocation, HeLa. The settings on record: glycan lost; control: wild type SPPL2c-myc.

B1: SPP: N10/20A (protein)
parent chain: MDSAVSDPHNGSAEAGTPANGTTRPPSTPEGIALAYGSLLLMALLPIFFGALRSVRCARGKSSSDMPETITSRDAARFPIIASCTLLGLYLFFKIFSQEYINLLLSMYFFVLGILALSHTISPFMNKFFPANFPNRQYQLLFTQGSGENKEEIINYEFDTKDLVCLGLSSVVGVWYLLRKHWIANNLFGLAFSLNGVELLHLNNVSTGCILLGGLFIYDIFWVFGTNVMVTVAKSFEAPIKLVFPQDLLEKGLEADNFAMLGLGDIVIPGIFIALLLRFDISLKKNTHTYFYTSFAAYIFGLGLTIFIMHIFKHAQPALLYLVPACIGFPVLVALAKGEVAEMFSYEESNPKDPAAETESKEESTEASASKRLEKKEK
Turning to B1, in data set [1] (control: wild type SPP-myc), the enzymatic_activity entry is “no change”.

B2: SPPL2c isoform A: N106A (protein)
parent chain: MACLGSLHPLGSLLLLFLLLLLSPEARGEYGLVRVVSKNWSKDYCVLYSSDYVNLPRDLHHAPLLSLHDGTKTPWCPDEDSFHQAQDSSPRQRPLHQTTTMVTRGNCSFYAKGWLAQDQGAQGLLIVSRARNQQCSDTISKPQDPSKPWPALTIPVAVLRYTDMLDIVSHTYGDTDVRVAMFAPLEPVTDYNMAIIFILAVGTVAAGGYWAGLMEANKLQRRQAQRGGGLGGHNQQQTVAAERSQRAWEDDDFEDAPMDFTPAMTGAVVTMSCSIMILLYFFYDCFVYVMIGIFSLGASTGLYSCLAPILCHLPLWRYQWVLPGQRVSVTWPLLLLAGLCAMVTVLWVIHRNEDHWAWLLQDTLGVAYCLFVLRRVRLPTFKNCTLFLLALLAFDVFFVFITPLFTKTGESIMVEVASGPADSSSHERLPMVLKVPRLSFSALTLCNQPFSILGFGDIVVPGFLVAYCHRFDMQVQSRQVYYMACTVAYAVGLLVTFVAMILMQMGQPALLYLVSSTLLTSLAVATCRQEFTLFWTGQGRAKIPAEPVAQPCIASAVGSKMKLEDAKDSRTTNRFEQAVDGESGDLESSTGDDMAEMVTLSEDEATSPEGHSESSEGWSDTNLDPNELPSGSPMALEAMLIPLIQPIPHPSELGHIRTQSRVHDSSLPWMGLHKRKGLKVKKSMSAQAPL
Consider B2, for which, in data set [2], the expression_or_secretion entry is listed as “decreases”. Besides, the enzymatic_activity result in data set [1] (control: wild type SPPL2c-myc) and in data set [3] was “abolishes” in each case.
